The values that follow come from US20240140995A1.

For test [1], the target named is E. coli ColE-7 (E. coli) (UniProt Q47112). As to the kind of experiment: SPR Biacore T200, 37 C, single cycle kinetics. A general note: In SPR one partner is held on a chip, and binding of the other changes the refractive index at the surface.
Test [2] deals with GthCol (Geobacillus thermoglucosidasius C-terminal Colicin DNase domain, C36A, H78A, engineered) (Geobacillus thermoglucosidasius). Kind of test: SPR Biacore T200, 37 C, single cycle kinetics.
For test [3] the target is unchanged. As to the kind of experiment: SPR Biacore T200, 37 C, single cycle kinetics; […].
Test [4] has as its target E. coli ColE-7 (E. coli) (UniProt Q47112). Kind of test: SPR Biacore T200, 37 C, single cycle kinetics; biotinylated immunity protein on streptavidin sensor, colicin analyte 1.1-90 nM.

The Kd is the constant that tells how readily two partners part at equilibrium. Lower therefore signals tighter binding. What is called koff is a measure of how fast the partners let go of each other. One may read the kon as a measure of how fast the partners come together. In the test with E. coli ColE-7 (E. coli) [1], “GthIM (Geobacillus thermoglucosidasius immunity protein, C18A, engineered), singly biotinylated” returned a complex half-life t/2-diss of less than 1 min and a fold less affinity than GthIM/GthCol of 65000 fold. In test [2], this substance returned a fold stronger than the IM7/ColE7 interaction greater than 30 fold. Also, in test [3], the GthCol concentration at which GthIM saturation is achieved was 3 nM; the dissociation constant (Kd) was less than 0.2 pM; the MR (Molar Ratio, binding stoichiometry) was 1.1; the dissociation rate constant (koff) was less than 1e-05 s⁻¹. In test [3], this substance registered a kon greater than 5e+07 M⁻¹ s⁻¹. For the same substance, in the test with E. coli ColE-7 (E. coli) [4], the MR (Molar Ratio, binding stoichiometry) stood at 1.2.
